The values below come from paper PMC2841500 (Biochemical Journal, 2010).

Residue numbers refer to the chain shown, from its start. Names may count otherwise. Read-outs that look alike come from different tables or passages of the source.

Series [1] deals with T1, Alba1 (Sso10b) (Sulfolobus solfataricus, UniProt P60849 1-97).
T1 sequence: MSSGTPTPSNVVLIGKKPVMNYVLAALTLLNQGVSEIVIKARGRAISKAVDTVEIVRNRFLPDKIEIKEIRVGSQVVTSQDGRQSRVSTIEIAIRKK
In words: EMSA.

For series [2], the target named is T2, Alba1 F60A (Sulfolobus solfataricus, UniProt P60849 1-97, F60A).
T2 sequence: T1 sequence with F60A
Nature of the series: EMSA.

Series [3] deals with T1, Alba1 (Sso10b). In words: EMSA. This is another data set of the same source.
In series [4] the target is T1, Alba1 (Sso10b). In words: EMSA. This is another data set of the same source.
Series [5] deals with T2, Alba1 F60A. Nature of the series: EMSA. The source holds these as a separate data set.
In series [6] the target is T1, Alba1 (Sso10b). Nature of the series: EMSA. This is another data set of the same source.
The series “pulsed ESR” deals with the molecule itself. In words: pulsed ESR.

Turning to UUUUUUUUUUUUUUUUUUUUUUUUUUUUUU (ssRNA) [30U], the Kd with Alba1 (Sso10b) [1] came to 900 ± 38 nM.

B1: 39 bp duplex (dsDNA)
DNA 1: CCTCGGTGCTAAGTTGATGCTGGTACTCGGAGTATCCCG
DNA 2: CGGGATACTCCGAGTACCAGCATCAACTTAGCACCGAGG
For B1, binding with Alba1 F60A [2] was put at a Kd of 520 ± 13 nM.
Molecule CCTCGGTGCTAAGTTGATGCTGGTACTCGGAGTATCCCG (ssDNA) [39 mer ssDNA] yielded a Kd with Alba1 (Sso10b) [3] of 270 ± 13 nM.
In the series with Alba1 (Sso10b) [4], CCCGGCGUGCGGCCCG (ssRNA) [16 mer ssRNA] gave a Kd of 920 ± 69 nM.

B2: 16 bp duplex (dsDNA)
DNA 1: CCCGGCGTGCGGCCCG
DNA 2: CGGGCCGCACGCCGGG
As to B2, binding in the series with Alba1 F60A [5] was put at a Kd of 710 ± 20 nM.
Regarding AAAAAAAAAAAAAAAAAAAAAAAAAAAA (ssRNA) [28A], the affinity with Alba1 (Sso10b) [6], expressed as Kd, was 960 ± 30 nM.

B3: spin-labelled Alba R59C (S. solfataricus Alba1 R59C modified with MTSSL) (natural protein, Sulfolobus solfataricus, UniProt P60849 1-97, looked up)
chain: T1 sequence with R59C
modifications: methanethiosulfonate spin label MTSSL on the cysteine at position 59
Consider B3, for which the binding result in “pulsed ESR” is listed as “binds”.
